# Laboratory results reported in the RNAGym collection of RNA variant scans (doi:10.7554/elife.90254).
# B1: LINE1-full (parent)
# chain: UACGUAGGUGGUUUUCCCCUGAUAGUGCUAAGGGGGCCUGGAAGUUUGGACUGGGCAGAGCUCAACACAGCGUGGCAAAGUGGCUGUGGCUAGACUGCCUCUCUGGAUUCCUCGUCACUCAGCAGGGCAUCUCUGAGAGAAAUGCC
# Variants of: B1
# Assay: self-cleavage, relative activity (ratio to wild type); higher = more cleavage; in vitro, sequencing; the parent is a self-cleaving ribozyme
row,Variant,self-cleavage
1,U87C A121U,0.2
2,A79G A107C,0.92
3,A22U G25A,0.7
4,A31G A129G,1.05
5,C61U A140G,0.03
6,U87C G97A,0.12
7,U39C A129U,1.05
8,U39C G86A,0.09
9,U104C A121G,1.56
10,G10A G36C,1.89
11,U13C A42U,0.88
12,C90U A94U,0.04
13,U15A U47A,0.76
14,U23C A79U,2.06
15,A2G A64C,0.59
16,G4A A121C,1.72
17,C37A A94C,0.06
18,U15C A107U,1.2
19,C16U A124G,0.58
20,U15C U47C,1.64
21,U15C U47A,1.42
22,U52C A124U,1.48
23,G72A A117U,1.54
24,G49U U109C,0.95

row,Variant,self-cleavage
1,G72C U108G,0.96
2,U14C A107U,1.2
3,U12A U91C,0.54
4,U26A C145A,1.07
5,A30U A140U,0.67
6,A42G U102C,1.36
7,U23A U26C,0.99
8,G60A U104C,0.07
9,U62C A77G,0.08
10,U109A G122A,1.63
11,G82U U112C,1.18
12,U9A A124G,1.02
13,U5C A141U,0.73
14,U100C A121G,1.21
15,U15C G97A,0.06
16,A92G U109C,0.09
17,A77G C98A,0.23
18,U87C A117G,0.41
19,U46C U81G,0.54
20,C3U U134C,1.05
21,U62A A138G,0.06
22,A69U A142G,0.06
23,A78G A140G,1.18
24,A107G G127C,1.72

row,Variant,self-cleavage
1,U81C U130C,1.88
2,A30G U115C,1.12
3,U12A A22G,1.14
4,A65G U102C,0.08
5,U91A U134C,0.45
6,U29G U115C,0.63
7,A57U A138G,0.15
8,U29C G82A,1.44
9,C120U U130A,1.58
10,G25A G44A,1.16
11,C16U G40U,0.6
12,A6U U14C,0.92
13,G32A A57U,0.16
14,U45C A141G,1.37
15,A59U U115A,0.8
16,U39A A78U,1.98
17,U39A A78G,1.38
18,U47A A79G,1.05
19,U1C G114C,2.19
20,A94U A117G,0.38
21,G33A U45A,0.86
22,G88A U104C,0.15
23,C76U A141G,1.18
24,A2G A50G,0.39

row,Variant,self-cleavage
1,G74A A124G,0.51
2,U9C A30G,1.21
3,A42G A64G,0.28
4,A22G A129U,0.67
5,A31C U143A,1.01
6,C90G A129G,0.04
7,A92U A124U,1.2
8,G11A U15A,0.99
9,G55C A94C,0
10,A2G A136U,0.77
11,U46G C103A,1.25
12,U12G A24U,1.5
13,U23C A69U,0.02
14,U119C U143A,1.94
15,A30G A141U,1.06
16,U26A U87C,0.15
17,A64U U132C,0.49
18,C113U A138U,1.21
19,U100C U132A,2.37
20,A64G C99U,0.18
21,U5C U20A,0.84
22,G27A U96C,0.1
23,G53A A124U,1.28
24,G44U A142G,1.68

row,Variant,self-cleavage
1,U87A C131U,0.08
2,A31U U132C,1.39
3,G74A U115A,1.45
4,A78G U134A,0.9
5,A59U G127A,0.65
6,A69G A92U,0.13
7,U9A C111G,1.11
8,U20G C37A,1.04
9,A2U A107G,1
10,U13G A31G,0.39
11,U1C C99U,0.24
12,U52G U62C,0.09
13,C37A C90U,0.04
14,A43U G60A,0.05
15,U134C A136U,1.26
16,A57U A78G,0.03
17,C110A A124G,1.62
18,U14C C37G,0.56
19,A65G A67U,0.03
20,C38U A138G,0.83
21,U81C G127A,2.07
22,U62C G97C,0.06
23,U13G A107U,1.58
24,U12G G89A,0.14

row,Variant,self-cleavage
1,U9C U112G,2.63
2,A50G A59G,0.26
3,A64G A136U,0.28
4,C3U A22U,0.99
5,U26C C101U,1.46
6,G7A A30G,0.84
7,A50U C66U,0.01
8,G35A C95A,0.07
9,G89A A117U,0.04
10,A124G A140U,0.94
11,U47A A59G,0.05
12,U81A C146A,2.08
13,C63A A65G,0.02
14,A6G U46A,0.94
15,C90U U143C,0
16,C99U A138G,1.14
17,C56U A77U,0.11
18,U85C C99A,0.16
19,C110U U112C,2.13
20,A117U A140G,1.43
21,A43G U130C,1.2
22,A24G G33A,0.35
23,U45C C76A,1.22
24,U15C C131A,1.74

row,Variant,self-cleavage
1,U15C C131U,2.51
2,U13A A50U,0.58
3,U5C G89U,0.16
4,U39C A59U,0.61
5,A107G A138U,1.44
6,A42G A142G,1.48
7,U119C A138U,1.67
8,U96C A121G,0.12
9,U12A U119C,1.54
10,A24G C71U,1.03
11,U13G U115C,1.39
12,U13C A124U,1.28
13,U12C G83U,1.07
14,G49A U130C,1.55
15,C28G U115C,0.75
16,U29A A78U,1.48
17,U9C U119A,1.36
18,G33C U46A,1.45
19,A136G,1.27
20,A65G U91A,0.02
21,C76U,2.18
22,U20A A142G,1.08
23,U112A G114A,0.38
24,U20A A57U,0.11

row,Variant,self-cleavage
1,G41A U85C,0.05
2,U45C G48U,0.9
3,A59G U104A,0.14
4,U73C G125C,2.47
5,A79G U96A,0.09
6,U115G A121G,1.62
7,U87A,0.08
8,U109A C111U,1.56
9,A43U U100A,0.84
10,U52C C98G,0.17
11,U15C C17A,1.28
12,G60A,0.02
13,U96A U104G,0.08
14,A65G C123G,0.03
15,U47G U91A,1.93
16,G25U U104A,0.77
17,U15A A69G,0.22
18,U96A U100A,0.07
19,A67U A107U,0.04
20,A22G A107G,0.82
21,U62A U81C,0.04
22,A22G A50U,1.32
23,C37U U39C,1.26
24,U62C C90U,0.05

row,Variant,self-cleavage
1,U15C U115C,1.68
2,U12A A141U,0.64
3,A43U A59G,0.03
4,C103A A140G,1.23
5,G48A A140U,1.28
6,G53A C103A,1.43
7,C66U A117G,0.05
8,U119A U143A,1.16
9,A2C U85G,0.16
10,U15A A30U,0.85
11,G8U U39A,1.12
12,A124G A136C,1.19
13,U46A U96A,0.05
14,C99U,0.57
15,A6G C17U,0.28
16,C68U A136G,0.36
17,U9G U12A,0.16
18,A43U A94G,0.12
19,U20A A117U,1.49
20,U14C C116U,1.14
21,G82A U104C,0.83
22,A121G G125U,1.8
23,C71A C128U,0.18
24,U39A A59U,1.19

row,Variant,self-cleavage
1,A42G A43G,1.17
2,A94G U102C,0.18
3,C3G U132A,0.24
4,U9A U130A,1.23
5,U45C C66A,0.19
6,G54U G82A,1.26
7,C84A G93U,0.05
8,C63U U132C,0.35
9,G40A A64U,0.38
10,U100C U130A,1.85
11,A77G U115A,2.25
12,U132C U134C,1.35
13,G36A A78G,1.32
14,U39G A92U,1.06
15,U85C U143C,0.1
16,A42G G89C,0
17,A2G G89A,0.11
18,U45C U109C,0.61
19,C3A A121G,0.53
20,C16U,1.12
21,A6U U104G,0.48
22,G88A A117G,0.07
23,G34C U62A,0.04
24,U13C A92G,0

row,Variant,self-cleavage
1,A59G G93U,0.03
2,G36U U45C,1.13
3,U26C U81C,1.93
4,A64U A121U,0.53
5,U85A G126U,0.07
6,A30G A142G,1.07
7,A42G G139A,1.28
8,U13A U87C,0.16
9,A31U U100C,1.41
10,U62G U87G,0
11,A64U A67G,0.15
12,G70A A79G,0.1
13,U26A A129U,1.06
14,C18U A136G,1.33
15,U87G A140G,0.19
16,A57G U96C,1.37
17,C19U G54A,0.57
18,A22G G33U,1.25
19,A31U A57U,0.24
20,A22U U62A,0
21,A117G A141U,1.69
22,A69U U104C,0.05
23,A92G A129U,0.17
24,A57U U104C,0.15

row,Variant,self-cleavage
1,U26C U47C,1.88
2,G36C U81C,0.9
3,A42G C128U,1.28
4,C17U A138G,1.06
5,G93C,0.05
6,A24G A129G,1.19
7,U13C U104A,1.18
8,U91C C120A,0.74
9,C99U C145A,1.03
10,U62C A141U,0.03
11,U20A A92G,0.05
12,A59C U115C,1.55
13,C103U G114A,1.19
14,U29C U130A,1.26
15,A67G G106U,0.33
16,A78U A107G,2.47
17,U46C A78C,1.9
18,C19A U20C,1.04
19,G10A U100C,0.49
20,A24C A142C,1.13
21,U87A U96A,0.07
22,C84U G114U,0.15
23,G35C A59G,0.19
24,A79G U81A,2.28

row,Variant,self-cleavage
1,A65U U85C,0.06
2,A42G U87C,0.41
3,U26G U39C,1
4,A67U U130C,0.15
5,G58U,0.05
6,U13C C118U,0.99
7,U47A U96C,0.13
8,U5A A136G,1.14
9,C37G U47A,1.11
10,U15A C38A,0.77
11,A30G U85C,0.45
12,G35A A129U,1.62
13,G35C U132C,1.53
14,G33A A107G,1.52
15,C17U G49U,1.69
16,U15A A65U,0.29
17,U47A A107U,1.79
18,U9A G40A,1
19,U73C A92G,0.16
20,A92U C118G,0.37
21,U91A U100C,0.96
22,A30G,1.09
23,A57U U130C,0.13
24,G41U,1.19

row,Variant,self-cleavage
1,G54A C145U,0.54
2,U45C G126A,1.32
3,G55A A142G,0.27
4,C3U C113A,1.15
5,G60A A79G,0.05
6,A22G A59U,0.33
7,A31G U132A,0.94
8,U104C C145G,2.3
9,C95U U119C,0.22
10,U26A A42G,1.02
11,A43G C128G,0.77
12,C3U C51G,1.31
13,U46A G125A,2
14,U26A A107U,1.09
15,U14C U52G,1.51
16,U13C A94C,0.11
17,U96G U115C,0
18,G7A U85C,0.11
19,U91C A124C,0.69
20,U85A U104G,0.02
21,C128U A141U,1.62
22,A50U C118U,1.02
